Where no end group is shown, it is not given here. The star is where a group is joined. FITC = O=C1OC2(c3ccc(O)cc3Oc3cc(O)ccc32)c2ccc(NC(=S)*)cc21; Ahx = NCCCCCC(=O)O
Experiments:
Test in all cases: native gel or EMSA; 1.5% agarose gel in TB buffer (0.45 mM tris, 0.45 mM boric acid, pH ~8.5), 2 hours at 75 V; recombinant IMPs 20 μM, FITC peptides 10 μM; peptides seen with a UV filter, proteins by Coomassie staining
Settings in all cases: both partners purified
[1] = molecular target: T1, human importin β3 (human, UniProt O00410 1-1097)
T1 construct: human importin β3; In pET30a with His tag and TEV site; no cleavage step is described in the purification; also called hIMPβ3; IMPβ3; source: E. coli BL21(DE3)pLysS, purified (HisTrap, Superdex 200 SEC)
T1 sequence (looked up): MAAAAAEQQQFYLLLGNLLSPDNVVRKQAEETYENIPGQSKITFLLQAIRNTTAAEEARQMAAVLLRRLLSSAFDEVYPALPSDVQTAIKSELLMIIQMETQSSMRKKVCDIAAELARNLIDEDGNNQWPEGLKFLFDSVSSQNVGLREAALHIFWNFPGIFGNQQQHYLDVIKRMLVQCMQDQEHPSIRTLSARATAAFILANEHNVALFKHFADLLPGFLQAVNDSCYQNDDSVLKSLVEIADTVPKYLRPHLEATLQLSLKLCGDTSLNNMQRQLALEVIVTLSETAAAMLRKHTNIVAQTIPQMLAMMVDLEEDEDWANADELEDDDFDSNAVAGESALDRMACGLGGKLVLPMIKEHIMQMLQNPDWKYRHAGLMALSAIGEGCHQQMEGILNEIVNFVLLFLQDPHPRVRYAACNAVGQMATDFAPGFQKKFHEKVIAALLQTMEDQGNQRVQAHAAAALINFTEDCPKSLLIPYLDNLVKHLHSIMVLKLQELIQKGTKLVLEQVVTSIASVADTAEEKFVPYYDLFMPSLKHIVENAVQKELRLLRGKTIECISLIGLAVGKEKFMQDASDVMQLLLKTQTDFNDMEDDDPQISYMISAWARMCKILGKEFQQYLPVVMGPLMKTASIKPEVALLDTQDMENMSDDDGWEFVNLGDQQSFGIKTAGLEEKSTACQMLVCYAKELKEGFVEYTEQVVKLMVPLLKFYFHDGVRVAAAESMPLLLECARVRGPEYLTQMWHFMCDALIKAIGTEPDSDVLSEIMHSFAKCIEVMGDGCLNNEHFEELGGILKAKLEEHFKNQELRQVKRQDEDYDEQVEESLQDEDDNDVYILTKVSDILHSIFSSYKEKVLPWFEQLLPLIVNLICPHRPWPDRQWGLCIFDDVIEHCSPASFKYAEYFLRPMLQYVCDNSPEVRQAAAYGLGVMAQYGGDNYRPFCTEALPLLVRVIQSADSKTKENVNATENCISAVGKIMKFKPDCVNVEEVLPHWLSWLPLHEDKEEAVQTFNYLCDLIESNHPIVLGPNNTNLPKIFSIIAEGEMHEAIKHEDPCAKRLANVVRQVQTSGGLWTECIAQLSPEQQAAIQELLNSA

[2] = molecular target: T2, human importin β2 (human, UniProt Q92973 1-898)
T2 construct: human importin β2; In pET30a with His tag and TEV site; no cleavage step is described in the purification; also called hIMPβ2; IMPβ2; source: E. coli BL21(DE3)pLysS, purified (HisTrap, Superdex 200 SEC)
T2 sequence (looked up): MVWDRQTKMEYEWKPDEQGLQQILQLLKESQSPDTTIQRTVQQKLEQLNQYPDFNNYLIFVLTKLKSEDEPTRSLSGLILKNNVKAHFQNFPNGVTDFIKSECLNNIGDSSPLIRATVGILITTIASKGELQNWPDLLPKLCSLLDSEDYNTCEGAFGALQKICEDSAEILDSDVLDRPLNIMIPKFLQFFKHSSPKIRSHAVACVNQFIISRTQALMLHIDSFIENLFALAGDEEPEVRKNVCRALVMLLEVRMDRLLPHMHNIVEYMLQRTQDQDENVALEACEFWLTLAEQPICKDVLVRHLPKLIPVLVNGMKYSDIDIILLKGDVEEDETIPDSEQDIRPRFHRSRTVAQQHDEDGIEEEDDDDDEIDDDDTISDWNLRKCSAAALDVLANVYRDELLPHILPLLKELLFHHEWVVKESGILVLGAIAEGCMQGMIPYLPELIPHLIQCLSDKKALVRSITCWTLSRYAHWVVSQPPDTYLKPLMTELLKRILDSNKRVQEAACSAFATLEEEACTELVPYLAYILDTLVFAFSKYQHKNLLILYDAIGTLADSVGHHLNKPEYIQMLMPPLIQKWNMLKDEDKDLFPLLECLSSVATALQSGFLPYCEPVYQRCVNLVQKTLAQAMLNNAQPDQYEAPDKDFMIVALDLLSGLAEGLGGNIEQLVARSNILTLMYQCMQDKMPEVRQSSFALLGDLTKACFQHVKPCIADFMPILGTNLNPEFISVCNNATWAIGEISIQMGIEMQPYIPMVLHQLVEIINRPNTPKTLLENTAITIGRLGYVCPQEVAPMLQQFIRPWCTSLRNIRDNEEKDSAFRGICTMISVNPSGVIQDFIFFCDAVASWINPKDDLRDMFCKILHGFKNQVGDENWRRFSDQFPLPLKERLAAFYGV

[3] = molecular target: T3, human importin β1 (human, UniProt Q14974 1-876)
T3 construct: human importin β1; In pMCSG21 with His tag and TEV site; no cleavage step is described in the purification; also called hIMPβ1; IMPβ1; source: E. coli BL21(DE3)pLysS, purified (HisTrap, Superdex 200 SEC)
T3 sequence (Q14974 whole entry): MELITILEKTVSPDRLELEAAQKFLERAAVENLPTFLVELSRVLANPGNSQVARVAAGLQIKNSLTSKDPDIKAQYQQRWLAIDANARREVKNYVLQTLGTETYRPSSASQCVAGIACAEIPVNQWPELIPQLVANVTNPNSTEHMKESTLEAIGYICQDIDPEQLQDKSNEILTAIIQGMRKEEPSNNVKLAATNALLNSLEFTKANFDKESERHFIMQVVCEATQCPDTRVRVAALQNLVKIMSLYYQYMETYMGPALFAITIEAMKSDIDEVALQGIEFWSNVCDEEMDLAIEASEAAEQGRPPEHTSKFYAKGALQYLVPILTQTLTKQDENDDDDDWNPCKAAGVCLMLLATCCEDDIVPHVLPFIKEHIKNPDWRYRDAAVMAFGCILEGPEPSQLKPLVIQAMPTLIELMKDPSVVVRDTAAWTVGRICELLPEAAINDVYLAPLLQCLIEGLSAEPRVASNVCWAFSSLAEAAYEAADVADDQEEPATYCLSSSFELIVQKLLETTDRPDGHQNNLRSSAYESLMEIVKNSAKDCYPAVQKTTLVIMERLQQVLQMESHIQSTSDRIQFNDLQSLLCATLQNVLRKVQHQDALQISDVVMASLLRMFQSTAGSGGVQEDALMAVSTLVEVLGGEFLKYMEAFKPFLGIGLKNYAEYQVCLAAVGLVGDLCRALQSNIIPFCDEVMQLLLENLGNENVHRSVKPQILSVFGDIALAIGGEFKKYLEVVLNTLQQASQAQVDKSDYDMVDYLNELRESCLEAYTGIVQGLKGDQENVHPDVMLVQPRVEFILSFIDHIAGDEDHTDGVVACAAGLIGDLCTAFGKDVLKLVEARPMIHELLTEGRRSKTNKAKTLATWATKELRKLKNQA

Measured: binding result

B1: BSB PyV-LTA;NLS peptide (Black Sea Bass polyomavirus large tumor antigen residues 660-683) (peptide)
peptide: {FITC-Ahx}-IAEYKRRHNIGSDGLPNKRRRCLF
notes: also called BSB PyV-LTA 660-683; BSBPyV LTA FITC-NLS peptide
binds: all assays above

Source: doi:10.1101/2025.05.20.655083, “Importin α/β1 dependent nuclear import of Black Sea Bass Polyomavirus Large Tumor Antigen is mediated by a classical NLS located downstream of the SF3 helicase domain” (bioRxiv, 2025)
